Two substances from patent US20040052794 can be followed below.

In data set [1] the test system is p53 wild-type His-tag (Homo sapiens). As to conditions: strand annealing initial rate, 20 nM protein, 37 C.
Data set [2] has as its target GST-RB18A-N2 (Homo sapiens) (UniProt Q15648). As to conditions: strand annealing initial rate, 20 nM protein, 37 C.
For data set [3], the target named is RB18A D9 product (aa 436-1566) (Homo sapiens) (UniProt Q15648). Put plainly: pulldown. The following applies: 100 mM NaCl.
Data set [4] relates to luciferase. Description: pulldown. The following applies: 100 mM NaCl; negative control.
Data set [5] has as its target p53 wild-type (Homo sapiens) (UniProt P04637). Put plainly: pulldown. As to conditions: 100 mM NaCl; positive control.

Sequence of p53 wild-type (Homo sapiens) (P04637 whole entry): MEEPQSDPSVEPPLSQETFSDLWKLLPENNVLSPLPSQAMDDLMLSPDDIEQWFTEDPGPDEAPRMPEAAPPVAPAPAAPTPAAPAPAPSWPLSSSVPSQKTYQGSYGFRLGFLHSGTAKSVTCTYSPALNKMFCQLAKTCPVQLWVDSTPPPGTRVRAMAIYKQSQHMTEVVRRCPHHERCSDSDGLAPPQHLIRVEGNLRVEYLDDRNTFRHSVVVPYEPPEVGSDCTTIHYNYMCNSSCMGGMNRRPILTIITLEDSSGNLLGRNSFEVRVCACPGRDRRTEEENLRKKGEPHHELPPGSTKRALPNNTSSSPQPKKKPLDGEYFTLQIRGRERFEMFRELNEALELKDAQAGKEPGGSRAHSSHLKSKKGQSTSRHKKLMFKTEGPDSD
Sequence of GST-RB18A-N2 (Homo sapiens) (Q15648 1249-1581): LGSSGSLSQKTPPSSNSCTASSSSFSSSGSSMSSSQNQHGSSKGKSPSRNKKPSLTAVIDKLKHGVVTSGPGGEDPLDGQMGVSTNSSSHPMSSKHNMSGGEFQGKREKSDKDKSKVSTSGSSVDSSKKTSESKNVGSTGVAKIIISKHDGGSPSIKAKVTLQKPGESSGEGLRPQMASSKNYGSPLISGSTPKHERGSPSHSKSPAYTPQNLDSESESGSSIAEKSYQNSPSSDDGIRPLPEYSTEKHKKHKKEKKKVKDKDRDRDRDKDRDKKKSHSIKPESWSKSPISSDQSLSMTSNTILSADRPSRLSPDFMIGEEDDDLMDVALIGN
Sequence of RB18A D9 product (aa 436-1566) (Homo sapiens) (Q15648 other isoform, or with tags, fused parts or gaps): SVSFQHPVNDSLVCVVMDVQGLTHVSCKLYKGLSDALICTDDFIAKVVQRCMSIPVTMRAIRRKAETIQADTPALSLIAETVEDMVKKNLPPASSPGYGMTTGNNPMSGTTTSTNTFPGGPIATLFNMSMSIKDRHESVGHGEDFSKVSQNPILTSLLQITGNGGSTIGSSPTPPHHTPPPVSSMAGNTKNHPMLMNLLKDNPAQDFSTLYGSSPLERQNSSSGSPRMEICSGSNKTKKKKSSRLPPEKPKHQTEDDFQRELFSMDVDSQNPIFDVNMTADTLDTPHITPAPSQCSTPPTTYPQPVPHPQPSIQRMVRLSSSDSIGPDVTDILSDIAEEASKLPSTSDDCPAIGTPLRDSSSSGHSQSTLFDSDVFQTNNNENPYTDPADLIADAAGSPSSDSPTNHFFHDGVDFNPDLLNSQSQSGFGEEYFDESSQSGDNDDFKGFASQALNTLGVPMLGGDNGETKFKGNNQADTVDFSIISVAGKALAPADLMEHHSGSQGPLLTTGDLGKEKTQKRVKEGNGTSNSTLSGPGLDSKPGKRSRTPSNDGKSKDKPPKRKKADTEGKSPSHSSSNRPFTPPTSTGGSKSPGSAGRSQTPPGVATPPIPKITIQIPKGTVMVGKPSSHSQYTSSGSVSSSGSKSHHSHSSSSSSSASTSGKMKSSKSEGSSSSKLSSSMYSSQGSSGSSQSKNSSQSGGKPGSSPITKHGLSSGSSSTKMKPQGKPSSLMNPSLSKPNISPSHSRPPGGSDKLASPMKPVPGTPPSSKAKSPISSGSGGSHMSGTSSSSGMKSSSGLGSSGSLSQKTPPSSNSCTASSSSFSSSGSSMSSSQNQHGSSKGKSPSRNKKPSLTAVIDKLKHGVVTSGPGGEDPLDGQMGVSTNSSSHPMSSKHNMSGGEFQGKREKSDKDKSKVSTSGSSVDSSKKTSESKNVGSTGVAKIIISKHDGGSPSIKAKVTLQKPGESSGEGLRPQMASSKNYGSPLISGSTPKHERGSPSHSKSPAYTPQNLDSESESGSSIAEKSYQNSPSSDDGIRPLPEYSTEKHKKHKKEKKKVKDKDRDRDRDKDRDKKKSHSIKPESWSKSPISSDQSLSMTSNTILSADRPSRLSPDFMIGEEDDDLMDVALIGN

On to “phiX174 HaeIII 194 bp fragment, heat denatured”, for which the activity in data set [1] was determined as 5.9 %/min; in data set [2], 14 %/min.

Turning to double-stranded DNA-cellulose, the binding (% of input retained) in data set [3] is 20; in data set [4], < 0.1; in data set [5] it was 20.
